Data taken from the nanobody polyreactivity screen of Harvey et al. (2022).

Test: yeast display, Sf9 membrane polyspecificity reagent, FACS + sequencing; frameworks hold sequencing errors
Outline: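 Nanobodies from a synthetic yeast display library (Saccharomyces cerevisiae BJ5465), induced 36–48 hours with galactose, were stained 1 hour at 4 °C with 10% biotinylated, detergent-solubilized Sf9 membrane reagent, enriched on streptavidin microbeads, then FACS-sorted. Anti-HA (expression) and streptavidin (reagent binding) fluorescence set low and high (top ~1%) gates. Polyreactivity labels come from the gate of origin. Genes were colony-PCR amplified, MiSeq 2 × 250 sequenced and filtered by CDR length.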

| Sequence | polyreactivity (PSR sort gate) |
| --- | --- |
| QVQLVESAGGLVQAGGSLRLSCAASGSNFKYYAMGWYRQAPGKERELVAAINGSGGSTYYADSVKGRFTISRDNAKNTVYLQMNSLKPEDTAVYYCARASDYNKVSKSQRMDYWGQGTQVTVSS | high polyreactivity |
| QVQLVESAGGLVQAGGSLRLSCAASGSTFAFYAMGWYRQAPGKERELVAVISLRGSRTYYADSVKGRFTISRDNAKNTVYLQMSSLKPEDTAVYYCATTGYRLRQATRYDYWGQGTQVTVSS | high polyreactivity |
| QVQLVESAGGLVQAGGSLRLSCAASGSTFDYYAMGWYRQAPGKERELVAAISRTGGRTYYADSVKGRFTISRDNAKNTVYLQMNSLKPEDTAVYYCATRNGRQYSVSYRYYYWGQGTQVTVSS | low polyreactivity |
| QVQLVESAGGLVQAGGSLRLSCAASGSTFTYYAMGWSRQAPGKESELVAAISSGASTYYADSVKGRFTFSRDNAKNTVYLQMNSLKPEDTAVYYCNAKKSIRPYRTGMDYWGQGTQVTVSS | high polyreactivity |
| QVQLVESAGGLVQAGGSLRLSCAASGSTFVWYAMGGYRQAPGKERELVDAINFGGTTYYADSVKGRFRISRYNAKNTVYLQLNSLKPEDTAVYYCATEYDYGSWFPDGWGIFDYWGQGTQVTVSS | low polyreactivity |
| QVQLVESAGGLVQAGGSLRLSCAASGYIYGYYVMGWNRQAPGKERELVAAISGRGGRTYYADSVKGRFTISRDNAKNTVYLQMNSLKPEDTAVYYCAAADLPGTMYYWGQGTQVTVSS | high polyreactivity |
| QVQLVESAGGLVQAGGSLRLSCAASRSIYGYYAMGWYRQEPGKERELVAAIRRSGGSTYYADSVKGRFTISRDNAKNTVYLHMNSLKPEDTAVYYCAARVSPYRGFYYWGLGTQVTVSS | high polyreactivity |
| QVQLVESAGGLVQAGGSLRLSCAATGFIFWGNAMGWDRQAPGKERELVAGIRSLGGTTSYADSVKGRFTISRDNAKNTVYLQMNSLKPEDTAVYYCAAKYSYYTYAGDGGLFSWSYGYWGQGTQVTVSS | low polyreactivity |
| QVQLVESAGGLVQAGGSLRLSCAPSGRIFPVNSMGSYRQAPGKERELVATMSSGDITNYADSVKGRFTISRDNATITVYLQMNCLKPEDNAVYYCARDSKRLARYYYWGQGTQVTVSS | low polyreactivity |
| QVQLVESAGGLVQAGGSLRLSCDASGLTYSYYAMGWYIQAPGKERELVAAISWSGGSTYYADSVNGRFTISRDNAKNTVYLQMNSLKPEDTAVYYCAKYPNRHYWYDYWGQGTQVTVSS | low polyreactivity |
| QVQLVESAGGLVQAGGSLRLSCSAYGIIFSRYAMGWYRQAHGKERELVAAITSGGSTSYADSVKGRFTISRDNAKNTVYLQMNSLKPADTAVYYCAAQFFYRKSGTWAVYRYNYWGQGTQVTVSS | high polyreactivity |
| QVQLVESAGGLVQAGGSLRLSSAASGLIFPLYEMGWYRQAPGKERELVAAINWRGGSTYYADSVKGRFTISRDNAKNTVYLQMNSLKPEDTAVYYCAAGYLHRDSYIYDYWGQGTQVTVSS | low polyreactivity |
| QVQLVESAGGLVQAGGSLRLSSGASGSTFNTYAMGWYRQAPGKERELVAAITYNGGSTYYADSVKGRFTISRDNAKNTVYLQMNSLKPEDTAVYYCAAPRSRSRTSRFEYWGQGTQVTVSS | high polyreactivity |
| QVQLVESAGGLVQAGGSLRLTCAASGRTFHHNAMGWYRQPPGKERELFAAITSVGNTYADSVKGRFTISRDNAKNTVYLLMNSMKPEDTAVYYCNARIYDSRFYWSPATSRFEYWGQGTQVTLSS | low polyreactivity |
| QVQLVESAGGLVQAGGSLSLSCAASGSIFIWYAMGWDRQAPGKERELVAAIRSGGSTYYADSVKGRFTISRDNAKNTVYLQMNSLKPEYTAVYYCAKVLTWRGYRYNYWGQGTQVTVSS | low polyreactivity |
| QVQLVESAGGLVQAGGSLSLSCAASGSILSRYAMGWYRQAPGKERELVAAINWSGSSTYYADSVKGRFTISRDNAKNTVYLQMNSLKPEDTAVYYCAKLYVTPRRLPYDYWGQGTQVPVSS | high polyreactivity |

| Sequence | polyreactivity (PSR sort gate) |
| --- | --- |
| QVQLVESAGGLVQAGGSLSLSCAASGSMFNKYAMGWYRQAPGKERELVAAISVSGTRTYYADSVKGRFTISRDNAKNTVYLQMNSLKPEDTAVYYCATKFFRTAYEYWGQGTQVTVSS | high polyreactivity |
| QVQLVESAGGLVQAGGSLSLSCDASGNTFLGYAMGWYRQAPGKERELVAAISKRGGSTYYADSVKGRFTISRDNAKNTVYLQMNSLQPEDTAVYYCNAVPPRDNGSWGQGTQVTVSS | high polyreactivity |
| QVQLVESAGGLVQAGGSVRLSCAASGRIFGSYAMGWYRQAAGKERELVAAINWRGGSTFYADSVKGRFTISRDNAKNTVYLQMNSLKPEDTAVYYSARRGYLQSGDYWGHGTQVTVSS | low polyreactivity |
| QVQLVESAGGLVQAGGTLRLSCDASGFIIYYYAMGWYRQAPGKERELVAAISRGGSTYYADSVKGRFTISRDNAKNTGYLQMISLKPEDTAVYYCASEDFPVYSYYYWGQGSQVTVSS | high polyreactivity |
| QVQLVESAGGLVQEGGSLRLSCAASVIFWANVMGWYRQAPGKEWELVDAITSGGSTNYADSVKGRFTISRDNAKNTVYLQMNSLKPEDTAVYYCIKPWYSYRYGGVGYGYWGQGTQVTVSS | low polyreactivity |
| QVQLVESAGRLVQAGGSLRLSCAASGSTYSSNAMGGYRQEPGKERELVAAITTSGGSTYYADSVKGRFTISRDNAKNTVYLQMNSLIPADTAVYYCAADLVHAYQWSIFLYGYWGLGTQVTVSS | low polyreactivity |
| QVQLVESARGIVQAGGSLRLSSAASGFIFYSSAMGGYRQAPGYERELVAGITSGGITSYADSVKGRFTISRDNAKNTVYLQMNSLKPEYTAVYYCAAVVVYQNYNYYYWGQGTQVTVSS | high polyreactivity |
| QVQLVESAVCLVQAGVSLRLSCAASGIIFDYNAMGWYRQAPGKDREVVAAITSTDNTNYADSVKGRFTISRDNAKNTVYLQMNSLKPEDTAVYYCNTDYWLSVVYAMDYWGQGTQVTVSS | low polyreactivity |
| QVQLVESCGGIDQAGGSLRLTCAATGRIFNSYPMGWYRQAPGKERELVAAISRNGGITYYADSVKARFTISRDNAKITVYLQMNILKQEDTAVYYCNADSSRRLYSSEYWGEGTQVTVSS | high polyreactivity |
| QVQLVESCGGLVHAGGSLRLSCAATGFTIAENVKGWYRQSPGKERELVAAIDYSDGITYYADSVKGRFTISRDNAKNTVYLQMNSLKPEDTAVYYCATQYLIQTKDYSWGQGTQVTVSS | high polyreactivity |
| QVQLVESCGGLVQAGCSLRLSCAASGSIVAWYTMGWYRQAPGKERELVAGITASGGSTYYADSVKGRFTISRDNAKNTVYLQMNILKPEDTAVYYCAATNPFRYRRGGYWGQGTQVTVSS | high polyreactivity |
| QVQLVESCGGLVQAGGSIRLRCAATGSIIYVNPMGWYRQAPWKEREMVAAITGGASTNYADSVKGRFTISRDNAKNTVYLQMNLLKPEDTAVYYCAVDPVGHATRVWTYQYDYWGQGNQVTVSS | low polyreactivity |
| QVQLVESCGGLVQAGGSLRLSCAASGFIFQPYAMGWYRQAPGTERELVAAITSRGGRTYYADSVKGRFTISRDNAKNTVYLQMNSLKPEDTAVYSCNAVIYACEYYYWGQGTQVTVSS | low polyreactivity |
| QVQLVESCGGLVQAGGSLRLSCAASGGIFGYYAMGWYRQAPGKEREFVAAITLSGGRSYYADSVKGRFTISRDNAKNTVYLQMNSLKPEDTAVYYCNAYPYYLVRNMDSWGQGTQVTVSS | high polyreactivity |
| QVQLVESCGGLVQAGGSLRLSCAASGRTFRDNAMGWYRQAPGKERELVAAIDIDSSTYYADSVEGRFTISRDNAKNTVYLQMNSLKPEDTAVYYCAAESYHDGKGFPDYEYWGQGTQVTVSS | low polyreactivity |
